These results are taken from publication PMC9348755 (Science (New York, N.y.), 2022).

The chains are these.
B1: C77G12 mAb (antibody, V domains shown)
VH: EVQLVESGGGVVQPGRSLRISCAVSGFTFGSYAMHWVRQAPGKGLEWVGVMSSDGHNEYYADSVKGRFTISRDNSRNKLYLEMNNLRVDDTAVFYCARGSDYVDDSPPLHYWGQGTLVTVSS
VL: DIQLTQSPSSLSASIGDRVTITCRASQDIANKLAWFQQAPGKAPKSLIYAASRLQSGVPSQFSGSGSGTDFTLTIESLQAGDFATYFCQQYDSFPFTFGPGTKVDVK
notes: also called Group 3 mAb; fusion peptide-specific mAb
B2: VP12E7 mAb (antibody, V domains shown)
VH: QVQLVQSGGGVVQPGESLRLSCSGSGFTFNNYIMHWVRQAPGQGLDYVSGIGSDGRNTNYGDSVKGRFTISRDNSKDTLYLQMTSLRAEDTAFYYCVKGLDVLRFLDLSTPSGERLDAFDIWGQGTMVTVSS
VL: DIVMTQSPSFLSASVGDRVTITCRASQGISNYLAWYQQKPGKAPHLLIYAASTLQSGVPSRFSGSGSGTEFTLTISSLQPEDFATYYCQQLNSYPLFTFGPGTKVDIE
notes: as for B1
B3: VN01H1 mAb (antibody, V domains shown)
VH: EVQLVESGGGLVLPGGSLRLSCSASGFTFSDFSMHWVRQSPGKGLEYVSAITSSGSSTYYPDSVKGRFTISRDNSKNTLYLQMGSLRVEDTAVYWCVKNSDVFRFPHLYFDVWGRGTLVTVSS
VL: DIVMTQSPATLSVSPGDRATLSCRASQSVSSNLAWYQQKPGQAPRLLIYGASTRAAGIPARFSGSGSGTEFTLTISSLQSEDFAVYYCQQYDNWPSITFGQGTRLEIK
notes: as for B1
B4: C13C9 mAb (antibody, V domains shown)
VH: EVQLVQSGPEVKKPGTSARVSCKASGFTSKNTALQWVRQARGQPLEWMGWIDISNYITNYAQKFRGRLTITWDLSASMAYMELSSLRSEDTAVYYCAAVGKDDDVLTGGNKYFDHWGQGTLVTVSS
VL: SYELTQPPSVSVSPGQTARITCSGDALPKKYAYWYQQKSGQAPVLVIHEDDKRPSGIPGRFSASSSGTTATLTISGAQVEDEADYYCYSTDTNDNHAFGSGTKLTVL
notes: as for B1
B5: C13B8 mAb (antibody, V domains shown)
VH: QVQLQESGPGLVQPSQTLTLTCTVSGDSISNEDYHWTWIRQHPGKGLEWMGYLQYSGNTNYNPSLKSRMTISVDTSKNQFSLRLNSVTAADTAVYFCATSIVLTGMSNKIQPFDYWGQGTLVTVSS
VL: SYELTQPPSVSVSPGQMARITCSGEALPKKYAYWYQQKGGQFPVLVIYKDTERPSGIPERFSGSSSGTIVTLTISGVQPEDEADYYCLSADTSGTWVFGGGTKLTVL
notes: as for B1

For the experiment, the target named is prefusion PentaPro (F817) SARS-CoV-2 S2 (SARS-CoV-2 (Wuhan-Hu-1 assumed), UniProt P0DTC2, stabilised). The experiment can be described thus: ELISA. The following applies: both partners purified. (In general: An ELISA detects its analyte on a solid surface through an enzyme-linked reagent.)
On to B1, for which the binding result was “binds”. The value for B2 was “binds”.

With B3, the binding result is listed as “binds”.

For B4, the binding result is listed as “binds”. The value for B5 was “binds”.
